Test results reported in patent US8975044B2, “Polynucleotides encoding for frizzled-binding agents and uses thereof” (OncoMed Pharmaceuticals, Inc., priority 2008, dated 2015).

T1: FZD8 (Homo sapiens, UniProt Q9H461, F127V/G126N)
T1 construct: N-terminus of the Fri domain of FZD8 in turn fused to the transmembrane domain and intracellular domain of CD4 protein; expressed in transfected cells; host or cells: HEK293
T1 sequence (Q9H461 28-158 G126N/F127V): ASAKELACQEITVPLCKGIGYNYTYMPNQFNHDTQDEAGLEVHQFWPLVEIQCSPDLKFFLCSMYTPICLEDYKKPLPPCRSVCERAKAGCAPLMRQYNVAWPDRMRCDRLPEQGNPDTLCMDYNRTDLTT

T2: FZD8 (Homo sapiens, UniProt Q9H461)
T2 construct: Fc
T2 sequence (Q9H461 28-157 limits assumed): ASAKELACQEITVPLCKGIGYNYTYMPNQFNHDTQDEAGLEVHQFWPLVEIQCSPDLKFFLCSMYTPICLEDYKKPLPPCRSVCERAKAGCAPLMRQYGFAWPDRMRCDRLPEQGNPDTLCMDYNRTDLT

B1: 18R5: human anti-FZD antibody; VH SEQ ID NO:10 (as 18R8), VL SEQ ID NO:14; binds FZD1, 2, 5, 7, 8 (antibody, V domains shown)
VH: EVQLVESGGGLVQPGGSLRLSCAASGFTFSHYTLSWVRQAPGKGLEWVSVISGDGSYTYYADSVKGRFTISSDNSKNTLYLQMNSLRAEDTAVYYCARNFIKYVFANWGQGTLVTVSS
VL: DIELTQPPSVSVAPGQTARISCSGDNIGSFYVHWYQQKPGQAPVLVIYDKSNRPSGIPERFSGSNSGNTATLTISGTQAEDEADYYCQSYANTLSLVFGGGTKLTVLG
modifications: 18R5/18R8 heavy chain variable region (VH); 18R5 light chain variable region (VL)
B2: 18R8: human anti-FZD antibody from phage display; VH SEQ ID NO:10, VL SEQ ID NO:12; binds FZD1, 2, 5, 7, 8 (antibody, V domains shown)
VH: EVQLVESGGGLVQPGGSLRLSCAASGFTFSHYTLSWVRQAPGKGLEWVSVISGDGSYTYYADSVKGRFTISSDNSKNTLYLQMNSLRAEDTAVYYCARNFIKYVFANWGQGTLVTVSS
VL: DIELTQPPSVSVAPGQTARISCSGDKLGKKYASWYQQKPGQAPVLVIYEKDNRPSGIPERFSGSNSGNTATLTISGTQAEDEADYYCSSFAGNSLEVFGGGTKLTVLG
modifications: 18R5/18R8 heavy chain variable region (VH); 18R8 light chain variable region (VL)
B3: 44R24: anti-FZD5/8 IgG antibody, VH SEQ ID NO:85, VL SEQ ID NO:86; ATCC deposit no. PTA-10311 (antibody, V domains shown)
VH: EVQLVESGGGLVQPGGSLRLSCAASGFTFSSYYITWVRQAPGKGLEWVSTISYSSSNTYYADSVKGRFTISRDNSKNTLYLQMNSLRAEDTAVYYCARSIVFDYWGQGTLVTVSS
VL: DIELTQPPSVSVAPGQTARISCSGDALGNRYVYWYQQKPGQAPVLVIPSGIPERFSGSNSGNTATLTISGTQAEDEADYYCGSWDTRPYPKYVFGGGTKLTVLG
modifications: 44R24 VH; 44R24 VL
notes: ATCC deposit no; PTA-10311

Assays:
[1] = molecular target: T1, FZD8; experiment: Epitope mapping by FACS on FZD8 Fri domain variants on HEK293 cells; assay type: binding; details: amino acids 126-127 mutated from FG to NV
Method: To identify the FZD epitope recognized by the 18R8 IgG antibody, epitope mapping was performed. Flow cytometry analysis of cell surface expressed FZD was utilized to measure antibody binding. Mammalian expression plasmid vectors comprising a CMV promoter upstream of polynucleotides that encode an N-terminal signal sequence FLAG epitope tag fused to the N-terminus of the Fri domain of FZD8 in turn fused to the transmembrane domain and intracellular domain of CD4 protein were generated by standard recombinant technology. This expression construct allows expression of the FZD8 Fri domain on the cell surface, as well as expression of a FLAG epitope tag to monitor expression. Site-direct mutagenesis was then used to modify selected amino acids within the extracellular domain of FZD. HEK293 cells were co-transfected with expression vectors encoding the FZD and the transfection marker GFP. Forty-eight hours post-transfection, cells were collected in suspension and incubated on ice with anti-FZD antibody or control IgG to detect background antibody binding. The cells were washed and primary antibodies detected with anti-antibody secondary antibodies conjugated to a fluorescent chromophore. Labeled cells were then analyzed by flow cytometry to measure the binding of anti-FZD antibody to cell surface FZD.
Epitope mapping for the anti-FZD antibody 44R24 was performed in a manner similar to that described above in Example 5 for the antibodies 18R8 and 18R5. The ability of 44R24 to bind to a similar epitope as 18R8 was assessed by flow cytometry using a series of amino acid variants of FZD8 previously shown to disrupt binding of 18R8 (see Example 5 and FIGS. 6 and 7).

[2] = tested on: C28 tumor cells; experiment: C28 colon tumor growth study; assay type: in vivo, Nod-Scid mice; details: 15 mg/kg intraperitoneally twice per week
Method: C28 tumor cells were injected sub-cutaneously in Nod-Scid mice. Tumors were allowed to grow until they had reached an average volume of 126 mm^3. Tumor bearing animals were groups were randomized into four groups (n=10 mice per group) and treated with either Control Ab (black squares), 18R8 (gray triangles), 44R24 (black open circles), or 18R5 (gray circles) (FIG. 58). Antibodies were dosed intraperitoneally at 15 mg/kg, twice per week. Tumor volumes are indicated.

[3] = molecular target: FZD2; experiment: Biacore affinity to recombinant Fzd Fc protein; assay type: binding, human; details: IgG antibody; Fzd Fc immobilized on CM5 Biacore chip
Method: (§1) The KDs of 18R8 and 18R5 antibodies were determined using the Biacore 2000 system from Biacore Lifescience (GE Healthcare). Specifically, purified anti-Fzd7 antibodies were serially diluted in 2-fold increments from 100 to 0.78 nM in HBS-P (0.01 M HEPES pH 7.4, 0.15 M NaCl, 0.005% v/v Surfactant P20). Each dilution was tested against recombinant Fzd Fc proteins immobilized onto a CM5 Biacore chip. The association and dissociation rates were measured and KD values determined using the Biaevaluation software program (Table 5, below).

[4] = molecular target: FZD1; experiment: Biacore affinity to recombinant Fzd Fc protein; assay type: binding, human; details: IgG antibody; Fzd Fc immobilized on CM5 Biacore chip
Method: as §1

[5] = molecular target: FZD5; experiment: Biacore affinity to recombinant Fzd Fc protein; assay type: binding, human; details: IgG antibody; Fzd Fc immobilized on CM5 Biacore chip
Sequence of FZD5 (Q13467 27-150 limits assumed): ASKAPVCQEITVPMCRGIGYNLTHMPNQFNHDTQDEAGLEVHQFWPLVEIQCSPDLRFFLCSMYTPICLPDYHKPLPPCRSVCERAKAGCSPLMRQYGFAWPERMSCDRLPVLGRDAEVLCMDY
Method: as §1

[6] = molecular target: T3, FZD8 (Homo sapiens, UniProt Q9H461); experiment: FACS binding to FZD-transfected HEK293 cells; details: for EC50: FACS MFI dose-response, full-length FZD in HEK293, 20 μg/ml 4-fold dilutions; for binding to cell-surface FZD8 by flow cytometry (in words): transfected HEK293 cells
T3 construct: plasmid DNA expressing full-length FZD1, 2, 5, 7 or 8; expressed in transfected cells; host or cells: HEK293
Method: (§2) To measure antibody binding to FZD by flow cytometry HEK293 cells were co-transfected with FZD expression vectors and the transfection marker GFP. Twenty-four to forty-eight hours post-transfection, cells were collected in suspension and incubated on ice with anti-FZD antibodies (10 μg/ml unless otherwise indicated) or control IgG to detect background antibody binding. The cells were washed and primary antibodies detected with Fc domain-specific secondary antibodies conjugated to a fluorescent chromophore (e.g. phycoerythrin conjugated anti-human IgG). Labeled cells were then analyzed by flow cytometry to identify anti-FZD antibodies that specifically recognize cell surface expression of FZD protein. Monoclonal antibodies 18R5 and 18R8 recognized FZD on transfected cells. As shown in FIG. 1 and FIG. 2, both 18R8 and 18R5 bind to multiple FZD including FZD1, FZD2, FZD5, FZD7, and FZD8. To examine the relative ability of 18R8 and 18R5 to bind to each FZD protein, titration analysis was conducted wherein the amount of antibody in the binding reaction was varied (FIG. 2).
(§3) HEK293 cells were co-transfected with a plasmid DNA expressing full-length FZD1, 2, 5, 7 or 8 along with another plasmid expressing the reporter gene GFP used as a transfection marker. Fugene 6 (Roche) was used as transfection reagent according to the manufacturer directions. Transfected cells were incubated twenty-four to forty-eight hours at 37° C. and 5% CO2. The anti-FZD mAbs were then diluted in a final volume of 50 μl starting with a concentration of 20 μg/ml and serially diluted 4-fold for a total of 8 dilutions. Each FZD/GFP 293 transiently tranfectant pool was collected in suspension and 100,000 transfected cells were incubated on ice 30-60 minutes with the diluted anti-FZD mAb to be tested. The cells were washed and bound anti-Fzd antibodies were detected with a secondary anti-human antibody conjugated to a fluorescent chromophore. Labeled cells were then detected and counted by FACS. The FACS data generated were expressed in Mean Fluorescence Intensity (MFI) units. GraphPad Prism software was used to graph and analyze the data. MFIs were plotted as a function of Ab concentration to establish dose-response curves. A non-linear regression was applied to the numbers to fit the curve and calculate EC50s.
T3 sequence (Q9H461 28-694): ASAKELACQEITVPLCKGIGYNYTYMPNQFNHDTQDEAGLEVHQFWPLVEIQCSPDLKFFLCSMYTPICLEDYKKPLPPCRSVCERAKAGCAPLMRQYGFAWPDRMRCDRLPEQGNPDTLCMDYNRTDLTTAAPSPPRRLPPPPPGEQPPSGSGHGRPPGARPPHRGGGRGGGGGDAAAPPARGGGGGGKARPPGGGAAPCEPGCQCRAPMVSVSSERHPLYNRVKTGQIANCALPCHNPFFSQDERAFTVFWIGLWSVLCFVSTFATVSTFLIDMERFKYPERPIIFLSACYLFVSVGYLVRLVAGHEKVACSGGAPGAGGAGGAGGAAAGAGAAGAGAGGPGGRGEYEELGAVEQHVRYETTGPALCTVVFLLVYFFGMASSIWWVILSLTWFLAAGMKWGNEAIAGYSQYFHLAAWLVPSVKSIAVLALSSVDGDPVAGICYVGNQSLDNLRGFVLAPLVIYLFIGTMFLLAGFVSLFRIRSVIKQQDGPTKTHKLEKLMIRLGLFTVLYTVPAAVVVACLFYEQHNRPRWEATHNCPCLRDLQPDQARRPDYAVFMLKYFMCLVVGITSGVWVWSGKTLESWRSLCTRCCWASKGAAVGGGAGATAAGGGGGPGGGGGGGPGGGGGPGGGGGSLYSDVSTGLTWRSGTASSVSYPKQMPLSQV

[7] = molecular target: T4, FZD1 (Homo sapiens, UniProt Q9UP38); experiment: FACS binding to FZD-transfected HEK293 cells; details: transfected HEK293 cells
T4 construct: plasmid DNA expressing full-length FZD1, 2, 5, 7 or 8; expressed in transfected cells; host or cells: HEK293
Method: as §2, §3

[8] = molecular target: T5, FZD2 (Homo sapiens, UniProt Q14332); experiment: FACS binding to FZD-transfected HEK293 cells; details: for binding to cell-surface FZD2 by flow cytometry (in words): transfected HEK293 cells
T5 construct: plasmid DNA expressing full-length FZD1, 2, 5, 7 or 8; expressed in transfected cells; host or cells: HEK293
Method: as §2, §3

[9] = molecular target: T6, FZD7 (Homo sapiens, UniProt O75084); experiment: FACS binding to FZD-transfected HEK293 cells; details: transfected HEK293 cells
T6 construct: plasmid DNA expressing full-length FZD1, 2, 5, 7 or 8; expressed in transfected cells; host or cells: HEK293
Method: as §2, §3

[10] = molecular target: T7, FZD5 (Homo sapiens, UniProt Q13467); experiment: FACS binding to FZD-transfected HEK293 cells; details: for EC50: FACS MFI dose-response, full-length FZD in HEK293, 20 μg/ml 4-fold dilutions; for binding to cell-surface FZD5 by flow cytometry (in words): transfected HEK293 cells
T7 construct: plasmid DNA expressing full-length FZD1, 2, 5, 7 or 8; expressed in transfected cells; host or cells: HEK293
T7 sequence (Q13467 27-585): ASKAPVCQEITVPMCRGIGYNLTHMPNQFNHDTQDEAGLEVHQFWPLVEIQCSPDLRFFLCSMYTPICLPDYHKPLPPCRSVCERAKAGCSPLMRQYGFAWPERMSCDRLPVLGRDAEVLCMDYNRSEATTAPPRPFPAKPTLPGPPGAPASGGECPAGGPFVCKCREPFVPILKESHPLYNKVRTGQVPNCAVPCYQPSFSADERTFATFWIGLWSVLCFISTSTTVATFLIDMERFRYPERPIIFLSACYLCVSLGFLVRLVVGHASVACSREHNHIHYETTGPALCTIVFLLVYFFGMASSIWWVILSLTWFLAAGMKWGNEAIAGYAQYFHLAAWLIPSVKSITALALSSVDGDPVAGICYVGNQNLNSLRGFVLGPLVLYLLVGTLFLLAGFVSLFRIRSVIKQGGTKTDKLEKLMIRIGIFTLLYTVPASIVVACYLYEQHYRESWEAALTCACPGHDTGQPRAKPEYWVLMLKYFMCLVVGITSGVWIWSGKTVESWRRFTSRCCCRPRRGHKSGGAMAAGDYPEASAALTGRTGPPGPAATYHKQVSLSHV
Method: as §2, §3

[11] = molecular target: T2, FZD8; experiment: Biacore affinity to recombinant Fzd Fc protein; assay type: binding; details: IgG antibody; Fzd Fc immobilized on CM5 Biacore chip
Method: as §1

Row | Molecule | binding to FZD8 variant [1] | tumor growth relative to the control group [2] | Kd [3] [nM] | Kd [4] [nM] | Kd [5] [nM] | EC50 [6] [nM] | binding to cell-surface FZD8 by flow cytometry (in words) [6] | binding to cell-surface FZD1 by flow cytometry (in words) [7] | binding to cell-surface FZD2 by flow cytometry (in words) [8] | binding to cell-surface FZD7 by flow cytometry (in words) [9] | EC50 [10] [nM] | binding to cell-surface FZD5 by flow cytometry (in words) [10] | Kd [11] [nM] | EC50 (nM) Fzd2 ([8]; FACS MFI dose-response, full-length FZD in HEK293, 20 μg/ml 4-fold dilutions)
1 | B1 | reduced staining | reduced growth relative to the control group | 3.3 | 4.6 | 1.9 | 12 | greater binding potency and bind | bind and greater binding potency and High affinity binding | bind and greater binding potency and High affinity binding | bind and greater binding potency and High affinity binding | 1.1 | bind and greater binding potency and High affinity binding | 5.8 | –
2 | B2 | similarly lost | had no effect | 6.2 | 15.6 | 4.2 | – | bind | bind | bind | bind | – | bind | 29.3 | –
3 | B3 | reduced staining | reduced growth relative to the control group | – | – | – | 1.09 | good affinity | does not bind | does not bind | does not bind | 1.89 | good affinity | – | no binding
